Patent US20180325119A1 (PIONEER HI BRED INTERNATIONAL, published 2018)

Experiments:
Experiment in all cases: co-expression in E. coli (pETDuet-1, N-6 His on the -1 fragment, -2 fragment untagged); Ni-NTA purification
[1] = molecular target: T1, IPD082Ia-2, C-terminal fragment of homolog IPD082Ia (Pseudomonas monteilii)
T1 chain: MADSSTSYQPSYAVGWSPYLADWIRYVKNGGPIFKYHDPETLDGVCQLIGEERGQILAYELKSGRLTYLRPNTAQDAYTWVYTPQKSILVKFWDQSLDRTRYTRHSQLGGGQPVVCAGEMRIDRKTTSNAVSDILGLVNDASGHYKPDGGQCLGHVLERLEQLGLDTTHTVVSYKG
Text: (§1) The IPD082Aa gene (SEQ ID NO: 1) was amplified by PCR using genomic DNA isolated from strain SSP446D7 using forward primer […] (SEQ ID NO: 59) and reverse primer […] (SEQ ID NO: 60). The resulting PCR product was DNA sequence verified and subcloned into pET16B vector with an N-terminal His-10 tag, and into pET24a vector with C-terminal His-10 tag or without tag. The plasmid DNA, containing the IPD082Aa gene insert, was transformed into competent C41 E. coli cells for recombinant protein expression. E. coli cells were grown at 37° C. with carbenicillin or kanamycin selection to OD₆₀₀ equal to 0.7-0.8 and then 1 mM ITPG was added and further grown at 16° C. for 16 hours to induce protein expression. The E. coli expressed His-tagged proteins were purified by immobilized metal ion chromatography using Ni-NTA agarose (Qiagen, Germany) according to the manufacturer's protocols. Other IPD082 homologs were expressed in a similar manner except the gene sequences were synthesized.
(§2) The polynucleotides, SEQ ID NO: 33 and SEQ ID NO: 35 respectively, encoding the 38.2 kDa N-terminal fragment (IPD082Aa-1—SEQ ID NO: 34) and 20.5 kDa C-terminal fragment (IPD082Aa-2—SEQ ID NO: 36) of IPD082Aa, were also co-expressed (FIG. 11) in a pETDuet™-1 vector (EMD Millipore, a Life Science business of Merck KGaA, Frankfurter StraBe 250, 64293, Darmstadt, Germany). Similarly polynucleotides encoding the C-terminal fragments of the IPD082 homologs: IPD082Hb-2 (SEQ ID NO: 37); IPD082Ia-2 (SEQ ID NO: 39); IPD082Ic-2 (SEQ ID NO: 41); IPD082Ie-2 (SEQ ID NO: 43); IPD082Ib-2 (SEQ ID NO: 45); IPD082Hd-2 (SEQ ID NO: 47); and IPD082Hc-2 (SEQ ID NO: 49), were cloned as chimeric fusions with IPD082Aa-2 (SEQ ID NO: 35) in the pETDuet™-1 vector containing IPD082Aa-1 polynucleotide (SEQ ID NO: 33).

[2] = molecular target: T2, IPD082Ic-2, C-terminal fragment of homolog IPD082Ic (Pseudomonas sp. S16-2)
T2 chain: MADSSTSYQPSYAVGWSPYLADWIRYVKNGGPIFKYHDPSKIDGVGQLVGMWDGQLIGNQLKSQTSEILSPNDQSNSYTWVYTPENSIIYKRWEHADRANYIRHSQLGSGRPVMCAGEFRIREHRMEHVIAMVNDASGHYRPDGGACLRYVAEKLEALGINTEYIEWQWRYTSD
Text: as §1, §2

[3] = molecular target: T3, IPD082Ie-2, C-terminal fragment of homolog IPD082Ie (Pseudomonas agarici)
T3 chain: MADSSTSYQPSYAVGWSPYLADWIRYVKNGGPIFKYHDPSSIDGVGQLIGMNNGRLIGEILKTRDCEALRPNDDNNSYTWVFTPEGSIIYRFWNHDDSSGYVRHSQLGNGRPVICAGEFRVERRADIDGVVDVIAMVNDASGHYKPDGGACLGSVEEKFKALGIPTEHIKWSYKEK
Text: as §1, §2

[4] = molecular target: T4, IPD082Ib-2, C-terminal fragment of homolog IPD082Ib (Pseudomonas sp VLB120)
T4 chain: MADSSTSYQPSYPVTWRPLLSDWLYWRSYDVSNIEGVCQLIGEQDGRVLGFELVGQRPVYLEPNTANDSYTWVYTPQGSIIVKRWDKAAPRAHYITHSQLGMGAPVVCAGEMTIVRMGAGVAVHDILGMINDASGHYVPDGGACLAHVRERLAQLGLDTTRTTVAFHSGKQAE
Text: as §1, §2

[5] = molecular target: T5, IPD082Hd-2, C-terminal fragment of homolog IPD082Hd (Pseudomonas corrugata)
T5 chain: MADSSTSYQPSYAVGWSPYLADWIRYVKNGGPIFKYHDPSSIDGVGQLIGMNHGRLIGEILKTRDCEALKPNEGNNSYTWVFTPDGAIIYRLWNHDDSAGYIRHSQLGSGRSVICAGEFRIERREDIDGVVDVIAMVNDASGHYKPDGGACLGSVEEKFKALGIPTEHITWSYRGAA
Text: as §1, §2

[6] = molecular target: T6, IPD082Hc-2, C-terminal fragment of homolog IPD082Hc (Pseudomonas corrugata)
T6 chain: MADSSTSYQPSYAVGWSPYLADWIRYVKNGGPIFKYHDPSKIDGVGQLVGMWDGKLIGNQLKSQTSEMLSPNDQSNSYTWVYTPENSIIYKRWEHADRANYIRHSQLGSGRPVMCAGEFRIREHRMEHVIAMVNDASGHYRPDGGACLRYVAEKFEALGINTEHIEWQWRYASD
Text: as §1, §2

Measured: binding result

B1: IPD082Aa-1, N-terminal region of IPD082Aa (pETDuet-1 construct, N-6 His) (other)
chain: MQTTVSETLVSGSDPRLQVSMGNETANGRWDNPYAIQFTYSIAGRQFFYGQNLKTHYWFIQELLPGGKMGQETANGRWDNPYAVQFAFSVGGRQFFYGQNLETNYWFIQELLAGGKMGQETANGRWNNPYASQFAFSVGGRQFFYGQNLKTNYWFIQELLAGGKMGQETANGTLDGPFAVQFPFSVGGSQYFYGQNIKDRSWFIKELLAGGKVGKTTASGRWDNAYAVQFAYPAEQYGRQYFYGQNLDTNYWFVQELLPGGAMGEEIMNGRWGNPYATQFAYEQGGISYFYGQNQSSNYWFIQELLSDTEYTVRRLPLLDYSSSTSAAQQSAPGVCL
notes: Co-expressed in pETDuet-1 with untagged C-terminal fragments of IPD082 homologs; not shown: N-terminal 6xHis tag of the pETDuet-1 vector ('N-6 His for -1')
binds: [1] | [2] | [3] | [4] | [5] | [6]
